Results from US20230309566A1.
Ends that are not written are not given here.

Target: Sf9 cells expressing receptor A or receptor B
Assay: cell-based or functional assay

Row | Binder | EC50 of calcium fluorescence (FLIPR Calcium 6) in Sf9 cells expressing receptor A or receptor B [nM]
1 | QPPLPRY-NH2 [QPPLPRY-NH2 (SEQ ID NO: 3)] | 1.4
2 | QPPVPRY-NH2 [QPPVPRY-NH2 (SEQ ID NO: 4)] | 12.7
